Test results reported in the nanobody polyreactivity screen of Harvey et al. (2022).

Assay: yeast display, Sf9 membrane polyspecificity reagent, FACS + sequencing; frameworks hold sequencing errors
In short: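 Nanobodies came from a synthetic yeast display library in Saccharomyces cerevisiae BJ5465, induced with galactose for 36–48 hours and stained for 1 hour at 4 °C with 10% biotinylated, detergent-solubilized Sf9 membrane reagent. Cells were enriched on streptavidin microbeads and then FACS-sorted, with low and high (top ~1%) gates set on anti-HA fluorescence for expression and streptavidin fluorescence for reagent binding. Each polyreactivity label reflects the gate a clone came from. Genes were amplified by colony PCR, sequenced by MiSeq 2 × 250 and filtered by CDR length.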

| Sequence | polyreactivity (PSR sort gate) |
| --- | --- |
| QVQLVESGGGLVQAGGSLRLSFAASGYTFSPYAMGWYRQAPGKERELVAVISSSASTYYADSVKGRFTISRDNAKITVYLQMNSLKPEDTAVYYCAAQPAHPRRYDYWGQGTQVTVSS | high polyreactivity |
| QVQLVESGGGLVQAGGSLRLSFAASGYTFWYYAMGWYRQAPGKERELVARISKRGGSTYYADSVKGRFTISRDNAKNTVYLQMNSLKPEDTEVYYCAADTRQQSHSMDYWGQGTQVTVSS | low polyreactivity |
| QVQLVESGGGLVQAGGSLRLSFGASGLNFGWYAMGWYRKAPGKERELVAAITYDGDSTYYADSVKGRFTISRDNAKNTVYFQMNSLKPEDTAFYYCAGEYGYGEMDSWGQGTQVTVTS | high polyreactivity |
| QVQLVESGGGLVQAGGSLRLSGAASGITIKRYAMGWYRQAPGKEREFVATISQSGTSTYYADSVKGRFTISRDNAQNTVYLQMNSLKPEDTAVYYCAADYIGYWYGYYSWGQGTQVTVSS | low polyreactivity |
| QVQLVESGGGLVQAGGSLRLSGAASGNIFDNYAMGWYRQAPGKERELVAAITWSGGSTYYADSVKGRFTISRDNAKNTVYLQMNSLKPEDTAVYFCNTDYNHVFAYDHWGQGTQVTVSS | low polyreactivity |
| QVQLVESGGGLVQAGGSLRLSGAASGRIFAQYAMGWYRPAPAKERELVAAITAGDDTYADSVKGRFTISRDNAKNTVYLQMNSLKPEDTAVYYCAAETWDLTWWGAYDLGEYWGQGTQVTVSS | high polyreactivity |
| QVQLVESGGGLVQAGGSLRLSGAASGRIFATNAMGWYRQAPGKETELVATITRSAGRTYYADSVKGRFTNSRDNAKNTVYLQMNSLKPEETAVYYCAASYWDTEPGYREYDYWGQGTQVTVSS | low polyreactivity |
| QVQLVESGGGLVQAGGSLRLSGAASGRIFGSYARGWYRQAPGKEREFVAGIRSVGSTNYADSVKGRFTISRDNAKNTVYLQMNSLKPEDTAVSYCASRLWHVSYAGQGGDYWGKGTQVTVSS | low polyreactivity |
| QVQLVESGGGLVQAGGSLRLSGAASGRTFKHYVMGWYRQAPGKARELVAAYRSGGRTNYADSVKGRFTISRDNAKNTVYLQMNRVKPADTAVYYCAARYFSQYQGAGYDSWGQGTQVTVSS | high polyreactivity |
| QVQLVESGGGLVQAGGSLRLSGDATGLIFNKYAMGWYRQAPGKERELVAVISFRGDGTHYADSVKGRFTISRDNAKYTVYLQMNSLKPEDTAVYYCNARTSIYGRRLYDYWGQGTQVTVSS | high polyreactivity |
| QVQLVESGGGLVQAGGSLRLSGSASGRTFSQYVMRWYRQAPGQERELVAAISKRGGRTYYADSVQGRFTISRDNAKNTVYLQMNSLNPEDTAVYYCNDVYRYYPFDYWGQGTQVTVSS | high polyreactivity |
| QVQLVESGGGLVQAGGSLRLSRAASGFTWSYAMGWYRQAPGKERELVATISDGVSTNYADSVKGRFTISRDNAKNTVYLQRNSLKPEDTAVYYCAAEIPRRWASFATLWYDYWGQGTQVTVSS | low polyreactivity |
| QVQLVESGGGLVQAGGSLRLSRAASGRTFYGYAMGWYRQAPGKESELVARIRSGGSTNYADSVKGRFTISRDNAKNTVYLLMNSLIPEDTAVFYCAARPGAAGYKYYYWGQGTQVTVSS | high polyreactivity |
| QVQLVESGGGLVQAGGSLRLSSAASARIFFKNTKGWYRPAPGKERELVAAITSSGSSTYYADSVKGRFTISRDNAKKTVYLQMNSLKPEDTAVYYCNALTWDHSRTGVDYWGQGTQVTVSS | low polyreactivity |
| QVQLVESGGGLVQAGGSLRLSSAASGFIFGAYAMGWYRQAPGKERELVAANSSRGGNTYYADSVKGRFTISRDNAKNTVYLQMNSLKPEDPAVYDCNAVGYAPYLYVPPPYEYWGQGTQVTVSS | high polyreactivity |
| QVQLVESGGGLVQAGGSLRLSSAASGFIFGSNAMGWYRQAPGKERELVAAISRSGGSTYYADSVKGRFTISRDNAKNTVYLQMNSLKPEDTAVYYCASYLYKSRYLPEYDYWGQGTQVTVSS | high polyreactivity |

| Sequence | polyreactivity (PSR sort gate) |
| --- | --- |
| QVQLVESGGGLVQAGGSLRLSSAASGFIFTWYAMGWYIQAPGKERELVAAISSSGGRTYYADSVKGRFTISRDNAKNTVYLQMNSLKPEDSAVYYCTAVKFIRQHSEYDYWGQGTLVTVSS | high polyreactivity |
| QVQLVESGGGLVQAGGSLRLSSAASGFIFYQYAMGWYRQAPGKERELVAAISKSGGNTYYADSVKGRFTISRDNAKNTVYLQMNSLKPEDSAVYYCAADRGQRGMYYWGQGTQVSVSS | high polyreactivity |
| QVQLVESGGGLVQAGGSLRLSSAASGFTFASYAMGWYRQAPGKERELVAAIDSDDSTNYADSVKGRFTISRDNAKNTVYLHMNSLKPEDTSVYYCAADEGPYYGIYEYYYWGQGTQVTVSS | high polyreactivity |
| QVQLVESGGGLVQAGGSLRLSSAASGFTFAYNDLGWSRQAPGKERELVATITNSGASTSYADSEKGRFTISRDNAKNTVYLQMNSLKPEDTAVYYCNVGLWRYVRFTGRYYPYDYWGQGTQVTVSS | high polyreactivity |
| QVQLVESGGGLVQAGGSLRLSSAASGFTFVINDMGWYRPAPGKERELVADITSGGDTYYADSVKGRFTISRDNAKNTVYLQMNSLKPEDTAVYYCAADIYPDWIYLLYGYWGQGTQVTVSS | low polyreactivity |
| QVQLVESGGGLVQAGGSLRLSSAASGFTLYYYTMGWYRQAPGKERELVAAITSGGDTYYADSVKGRFTISRDNAKNTVYLHMHSLKPEDTAVYYCAADYGTQYGEYTYYDYDYWGKGTQVTVSS | low polyreactivity |
| QVQLVESGGGLVQAGGSLRLSSAASGITFATYAMGWYRQAPGKERELVAAISSSTGSTYYADSVKGRFTISRDNAKNTVYLQMNSLKPEDTAVYYCAAVRTQQYDYWGQGTQVTVSS | low polyreactivity |
| QVQLVESGGGLVQAGGSLRLSSAASGITFAYYAMGWYRLAPGTVRELVAAISSTGSSTYYADSVKGRFTISRDNAKNTVYLQMNSLKPEDTAVYYCAARVHYRGIVRYDYWGQGTQVTVSS | high polyreactivity |
| QVQLVESGGGLVQAGGSLRLSSAASGITFKAYAMGWYRHAPGKERELVAAISGSGGATYYADSVEGRFTISRDNEKNTVYLQMISLKPEVTAVYYCAARAVSLTGYRFGYWGQGTQVTVSS | high polyreactivity |
| QVQLVESGGGLVQAGGSLRLSSAASGITFRFYSMGWYRQAPGKEREFVAAISTRGGRTYYADSVKGRFTISRDNAKNTVYLQMKSLKPEDTAVYYFAADFYYRTVATVTSVARYDYWGQGTQVTVSS | high polyreactivity |
| QVQLVESGGGLVQAGGSLRLSSAASGITFRYYTMGWYRQAPGKERELVAAITWSGGSTYYADSVKGRFTISRDNAKNTVYLQMNSLKPEDTAVYYGAADSYRFRYSGYDYWGQGTQVTVSS | high polyreactivity |
| QVQLVESGGGLVQAGGSLRLSSAASGLIFSVNAMGWYRQAPGKESEMIAAISKSGGRTYYADSVKGRFTISRDNAKNTVYLQMNSLKPEDTAVYYCAKRSRWNYKGYGTCGYYWGQGTQVTVSS | high polyreactivity |
| QVQLVESGGGLVQAGGSLRLSSAASGLIFYDNMGWSRQAPGKERELDAAISSSGGSTSDADSVKGRFTISRDNAKNTVYLQMNSLKPEDTAVYYCAADSYPDYLGFVGFDYWGQGTQVTVSS | low polyreactivity |
| QVQLVESGGGLVQAGGSLRLSSAASGLIFYWYAMGWYRQAPGKERELVAAISSAGSTNYADSVKGRFTISRDNAKNTVYLQMNSLKPEDTAVYYCAKGGYSPKSVKYYDYWGQGTQVTVSS | low polyreactivity |
| QVQLVESGGGLVQAGGSLRLSSAASGLTFALYAMGWYRQAPGKERELVATISRGASTNYADSVKGRFTISRDNTKNTVYLQMNSLKPEDTAVYYWAVALRSTPRTREVRPSPRVYYWGQGTQVTVSS | high polyreactivity |
